Assay results from patent publication US6660837B1, “Modified protein derived from protein kinase N” (Kirin Beer Kabushiki Kaisha, priority 1995, dated 2003).
One block for each substance: values may come before it. Ends that are not written are not given here.

Assays:
[1] = target: T1, RhoA (Homo sapiens, UniProt P61586); assay: Yeast two-hybrid, region of PKN with RhoA; assay type: binding; conditions: data not shown
T1 construct: expressed in transfected cells; host or cells: yeast (two-hybrid system)
From the text: (§1) The two-hybrid methods was employed to identify the region of PKN that interacted with HuActSkl , and this region was compared with the binding site for RhoA, which binds to PKN, in vitro and in vivo. […] This region corresponds to the second leucine zipperlike sequence and the N-terminal region adjacent thereto, which is conserved through evolution in vertebrates (Mukai, H., et al., Biochim. Biophys. Acta 1261, 296-300 (1995)). Thus α-actinin binds to the region distinct from that which binds to Rho.

[2] = system: α-actinin (HuActSkl); assay: Yeast two-hybrid, regions of PKN with HuActSkl; assay type: binding, human
Protocol: Schemes of the fusion constructs for human PKN, human skeletal muscle type α-actinin (HuActSkl , designated in (Beggs, A., et al., J. Biol. Chem. 267, 9281-9288 (1992)) and non-skeletal muscle type α-actinin (HuActNm, designated in (Beggs, A., et al., J. Biol. Chem. 267, 9281-9288 (1992)) used in this study are shown in FIGS. 41 and 42. Screening of proteins, which bind to the N-terminal region of human PKN (the amino acid sequence 1-540, this region being designated as “PKNNl”), was performed as described in Example 6. Primary positive clones were recovered and retransfected into the original yeast host strain YGH1 (a, ura3-52, his3-200, ade2-101, lys2-801, trpl-901, leu2-3, Can^r, gal4-542, gal80-538, LYS2::gal1uas-gal1tala-HIS3, URA3::gall-lacZ) in combination with the Gal4bd-PKN or the Gal4bd-p53 tumor suppresser. Plasmids that activated marker expression only in the presence of PKN were analyzed further.
as §1, with “Thus α-actinin binds to the region distinct from that which binds to Rho.” left out

[3] = system: GST-NF (each subunit) fusion proteins; assay: In vitro binding of in vitro translated PKN to GST-NF (each subunit); conditions: GST pull-down
From the text: For in vitro transcription, truncated human PKN was made as follows; Expression vector pPKNN2 for N-terminal region of PKN (the amino acid sequence 1-474 in SEQ ID NO: 1, this region was designated as “PKNN2”) was made by digesting phPKN-H4 (a plasmid containing human PKN cDNA in pBluescript II SK (Mukai, H. & Ono, Y., Biochem. Biophys. Res. Commun. 199, 897-904 (1994)) with Bst EII, and filling in the ends with T4 DNA polymerase, and self-legation. This removed the original amino acid sequences C-terminal downstream of the BstEII site (1425 nucleotides from initiating ATG codon), and a stop codon was created in the plasmid sequence. Fragment coding for the amino acid sequence 614-942 in SEQ ID NO: 1, (This region was designated as “PKNC2”) containing the conserved catalytic domain of human PKN was made by PCR amplification. Expression vector pPKNC2 was made by subcloning this fragment into pRc/CMV (Invitfrogen Corp.). These plasmids were linealized by cutting with XbaI, and CRNA was transcribed using T7 RNA polymerase. For NFL, pBL (Nakagawa, T. et al., J. Cell. Biol. 129, 411-429 (1995)) was linealized by cutting with HindIII, and CRNA was transcribed using T3 RNA polymerase. For in vitro translation, these cRNAs were translated in rabbit reticulocyte lysate (Promega) in the presence of [^35S] methionine. […]

[4] = system: repeat 20 of rat α-spectrin; assay: In vitro binding of PKN to α-spectrin repeat 20
Protocol: cDNAs encoding the spectrin-like repeat 3 (the amino acid sequence 479-600) and EF-hand-like region (the amino acid sequence 712-843) of HuActNm were amplified by PCR from human brain cDNA library, and were ligated to pGEX4T vector. cDNAs encoding the spectrin repeat 20 and EF-hand-like region of α-actinin were amplified by PCR from rat brain cDNA library, and were ligated to pGEX4T vector. Expression and purification of GST or GST fusion proteins were performed according to the manufacturer's instruction (Phamacia Biotech Inc.). The eluate from glutathione-Sepharose 4B (Pharmacia Biotech Inc.) was dialyzed overnight against 10 mM Tris/HCl at pH 7.5 containing 1 mM EDTA, 1 mM DTT, and 0.1 μg/ml leupeptin.
Since PKN bound to the repeat 3 of α-actinin, the present inventors have examined whether PKN can bind to the repeat 20 of α-spectrin.

[5] = target: T2, spectrin-like repeat 3 domain of HuActNm (Homo sapiens, UniProt P12814); assay: In vitro binding of PKNN2 to HuActNm spectrin-like repeat 3
T2 construct: made in house; host or cells: E. coli
Protocol: (§2) For in vitro binding experiment, 2 μl of in vitro translated PKNN2 was mixed with 5 μg of each GST-α-actinin fusion protein or with 25 μg of GST alone in 400 μl of GST binding buffer (20 mM Tris/HCl at pH 7.5, 0.5 mM DTT, 150 mM NaCl, 0.05% Triton-X100, 1 mM EDTA, 1 μg/ml leupeptin) and incubated for 1 hr at 4° C. After addition of 25 μl of glutathione-Sepharose 4B pretreated with 10 mg/ml of E. coli extract to block nonspecific binding, the binding reaction was continued for additional 30 min at 4° C. The glutathione-Sepharose 4B was then washed four times in GST washing buffer (20 mM Tris/HCl at pH 7.5, 0.5 mM DTT, 1 mM EDTA, 1 μg/ml leupeptin) containing 0.5 M NaCl and 0.5% Triton X-100, and further washed with GST washing buffer. Bound proteins were eluted with GST elution buffer (100 mM Tris/HCl at pH 7.5, 10 mM glutathione, 120 mM NaCl, 1 mM EDTA, 0.5 mM DTT, 1 μg/ml leupeptin) and were subjected to SDS-PAGE. The binding was visualized and quantitated by an imaging analyzer (FUJI BAS1000).
(§3) Accordingly, the present inventors have studied whether the in vitro translated PKNN2 could bind to the region of HuActNm corresponding to the PKN-binding site of HuActSkl in the same manner as in Example 25. The HuActNm fragment used in the experiment was prepared according to the following procedure. […]

[6] = target: T3, EF-hand-like domain of HuActNm (Homo sapiens, UniProt P12814); assay: In vitro binding of PKNN2 to HuActNm EF-hand-like domain
T3 construct: made in house; host or cells: E. coli (GST fusion); rabbit reticulocyte lysate (PKNN2)
Protocol: as §2, §3

[7] = target: T4, in vitro translated PKNN2 (Homo sapiens, UniProt Q16512); assay: In vitro binding of GST-HuActSkl fragments to PKNN2; conditions: resistant to 0.5% Triton X-100/0.5 M NaCl wash
T4 construct: made in house; host or cells: in vitro translation in rabbit reticulocyte lysate (Promega)
Protocol: In vitro transcription for the N-terminal region of PKN (the amino acid sequence 1-474, this region being designated as PKNN2 (Example 8)) was performed as described in Example 8. For in vitro translation, cRNAs were translated in rabbit reticulocyte lysate (Promega) in the presence of [^35S] methionine as described in Example 8.
as §2

[8] = target: full-length human PKN (Homo sapiens, UniProt Q16512); assay: Co-immunoprecipitation of PKN with HA-tagged α-actinin in COS7 cells; assay type: cell-based
Chain of full-length human PKN (P35609 333-894): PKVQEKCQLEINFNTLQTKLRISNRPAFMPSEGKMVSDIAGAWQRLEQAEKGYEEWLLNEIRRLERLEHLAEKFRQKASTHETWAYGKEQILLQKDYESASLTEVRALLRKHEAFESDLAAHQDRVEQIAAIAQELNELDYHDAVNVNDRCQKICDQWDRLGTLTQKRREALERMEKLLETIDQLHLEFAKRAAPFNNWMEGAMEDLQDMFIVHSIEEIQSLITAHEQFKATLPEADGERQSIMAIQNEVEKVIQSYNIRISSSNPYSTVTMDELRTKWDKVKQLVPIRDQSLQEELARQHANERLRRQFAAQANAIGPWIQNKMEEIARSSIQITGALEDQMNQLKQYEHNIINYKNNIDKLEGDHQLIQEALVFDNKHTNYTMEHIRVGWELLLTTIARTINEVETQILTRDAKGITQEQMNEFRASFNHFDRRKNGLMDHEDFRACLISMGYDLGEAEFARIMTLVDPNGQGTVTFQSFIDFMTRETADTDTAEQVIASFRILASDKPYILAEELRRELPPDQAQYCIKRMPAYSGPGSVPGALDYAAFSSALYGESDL
Chain of full-length human PKN (Q16512 whole entry): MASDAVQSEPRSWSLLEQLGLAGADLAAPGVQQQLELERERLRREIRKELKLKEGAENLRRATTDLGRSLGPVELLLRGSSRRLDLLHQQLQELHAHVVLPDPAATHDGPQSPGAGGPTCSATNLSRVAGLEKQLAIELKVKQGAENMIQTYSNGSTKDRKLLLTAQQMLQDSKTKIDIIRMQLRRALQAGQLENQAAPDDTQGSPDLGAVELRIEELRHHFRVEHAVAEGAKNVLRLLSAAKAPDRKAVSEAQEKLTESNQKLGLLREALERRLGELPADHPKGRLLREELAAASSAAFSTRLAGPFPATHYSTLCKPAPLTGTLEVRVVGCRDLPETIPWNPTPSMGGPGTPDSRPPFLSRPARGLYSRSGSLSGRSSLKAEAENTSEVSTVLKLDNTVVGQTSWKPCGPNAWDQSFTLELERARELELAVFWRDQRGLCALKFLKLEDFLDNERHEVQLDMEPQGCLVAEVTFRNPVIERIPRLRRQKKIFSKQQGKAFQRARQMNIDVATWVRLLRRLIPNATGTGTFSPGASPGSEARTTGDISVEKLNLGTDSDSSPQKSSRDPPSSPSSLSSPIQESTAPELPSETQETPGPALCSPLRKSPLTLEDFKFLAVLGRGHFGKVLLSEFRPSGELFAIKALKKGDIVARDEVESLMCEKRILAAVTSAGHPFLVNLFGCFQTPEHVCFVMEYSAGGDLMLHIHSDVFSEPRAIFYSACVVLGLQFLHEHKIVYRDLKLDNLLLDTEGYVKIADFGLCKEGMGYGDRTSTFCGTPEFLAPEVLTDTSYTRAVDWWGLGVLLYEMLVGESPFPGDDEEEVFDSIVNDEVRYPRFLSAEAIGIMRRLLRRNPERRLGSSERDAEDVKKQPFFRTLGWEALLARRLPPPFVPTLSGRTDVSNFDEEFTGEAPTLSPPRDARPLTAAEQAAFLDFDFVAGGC

T3 sequence (P12814 712-843): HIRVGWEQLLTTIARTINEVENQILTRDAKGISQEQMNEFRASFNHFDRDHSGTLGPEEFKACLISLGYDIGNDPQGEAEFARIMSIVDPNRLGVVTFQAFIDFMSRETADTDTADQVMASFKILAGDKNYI
Chain of α-actinin (HuActSkl) (P35609 344-894 limits assumed): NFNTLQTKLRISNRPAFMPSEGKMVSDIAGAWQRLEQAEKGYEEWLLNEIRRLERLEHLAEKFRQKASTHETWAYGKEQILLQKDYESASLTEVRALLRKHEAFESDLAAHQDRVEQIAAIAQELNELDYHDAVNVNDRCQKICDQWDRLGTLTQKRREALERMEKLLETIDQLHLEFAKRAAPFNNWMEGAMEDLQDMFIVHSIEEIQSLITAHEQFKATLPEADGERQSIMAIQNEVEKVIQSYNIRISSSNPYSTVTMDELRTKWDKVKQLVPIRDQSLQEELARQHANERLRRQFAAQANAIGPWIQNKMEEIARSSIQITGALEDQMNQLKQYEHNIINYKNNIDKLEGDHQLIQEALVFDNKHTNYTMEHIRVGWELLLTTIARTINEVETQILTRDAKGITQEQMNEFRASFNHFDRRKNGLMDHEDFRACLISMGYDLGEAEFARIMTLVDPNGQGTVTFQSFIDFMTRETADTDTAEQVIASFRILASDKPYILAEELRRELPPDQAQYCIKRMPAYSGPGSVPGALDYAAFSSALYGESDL
T4 sequence (Q16512 1-474): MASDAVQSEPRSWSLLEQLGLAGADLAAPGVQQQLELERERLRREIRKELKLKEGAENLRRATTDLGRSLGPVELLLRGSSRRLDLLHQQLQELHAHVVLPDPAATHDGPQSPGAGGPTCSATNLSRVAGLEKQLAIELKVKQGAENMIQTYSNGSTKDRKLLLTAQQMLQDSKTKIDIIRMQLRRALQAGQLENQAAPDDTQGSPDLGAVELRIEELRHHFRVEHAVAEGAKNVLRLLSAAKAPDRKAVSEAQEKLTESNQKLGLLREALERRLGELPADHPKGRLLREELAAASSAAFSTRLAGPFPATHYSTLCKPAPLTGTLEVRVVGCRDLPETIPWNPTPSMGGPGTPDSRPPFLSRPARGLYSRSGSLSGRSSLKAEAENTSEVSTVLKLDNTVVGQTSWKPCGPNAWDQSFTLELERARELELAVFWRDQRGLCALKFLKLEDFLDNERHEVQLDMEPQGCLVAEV
T1 sequence (P61586 whole entry): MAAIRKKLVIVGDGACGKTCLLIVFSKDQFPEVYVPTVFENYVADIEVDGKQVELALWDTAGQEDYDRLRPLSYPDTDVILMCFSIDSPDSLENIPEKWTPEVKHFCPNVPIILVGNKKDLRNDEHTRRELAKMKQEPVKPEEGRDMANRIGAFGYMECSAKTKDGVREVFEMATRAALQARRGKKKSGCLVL
T2 sequence (P12814 479-600): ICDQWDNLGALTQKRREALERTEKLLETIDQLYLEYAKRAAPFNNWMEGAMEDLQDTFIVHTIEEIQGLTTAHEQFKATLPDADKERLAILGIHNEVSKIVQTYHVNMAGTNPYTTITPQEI

interaction with RhoA in two-hybrid system [1]: no interaction was detected
Substance: amino acid 136-189 of PKN: region of PKN: second leucine zipper-like sequence and adjacent N-terminal region
interaction with α-actinin in two-hybrid system [2]: strongly interacted

binding to each subunit of NF at the head-rod domain in vitro [3]: directly bound
in vitro binding to repeat 20 of rat α-spectrin [4]: not detected
Substance: PKN: in vitro translated PKN (PKNN2, 1-474) in the binding assays of b333 and b480

binding to spectrin-like repeat 3 domain of HuActNm [5]: could bind
binding to EF-hand-like domain of HuActNm ([6]; absence of Ca^2+): not detected
binding to EF-hand-like region of HuActNm ([6]; presence of 1 mM Ca^2+): could effectively bind
Substance: PKNN2: N-terminal region of PKN, amino acid sequence 1-474 in SEQ ID NO: 1, in vitro translated

binding of in vitro translated PKNN2 to the fragment [7]: not
Substance: HuActSkl (837-894): human skeletal muscle type α-actinin fragment, GST fusion (ILASDKPYILAEELRRELPPDQAQYCIKRMPAYSGPGSVPGALDYAAFSSALYGESDL; also: GST fusion)

Substance: HA-tagged α-actinin: influenza HA epitope fused to the amino acid sequence 333-894 of HuActSkl (clone#4)
co-immunoprecipitation of PKN with anti-HA antibody [8]: contained substantially immunoreactive PKN
